Measurements reported in publication PMC6484134 (The Journal of Biological Chemistry, 2019).

Assays:
[1] = biological target: T1, Cul3NΔ22 (human Cul3 N-terminal domain, residues 23–388, I342R L346D) (human, UniProt Q13618 23-388, I342R | L346D); assay: ITC; 25 °C; 20 mM HEPES, 200 mM NaCl, 1 mM DTT; […] (70–[…]) […]; details: both partners purified
T1 construct: also called Cul3–NTD; Cu3NΔ22

[2] = biological target: T2, Cul3N (human Cul3 N-terminal domain, residues 1–388, I342R L346D) (human, UniProt Q13618 1-388, I342R | L346D); assay: as above; details: both partners purified
T2 construct: also called Cul3–NTD
T2 sequence (Q13618 1-388 I342R/L346D): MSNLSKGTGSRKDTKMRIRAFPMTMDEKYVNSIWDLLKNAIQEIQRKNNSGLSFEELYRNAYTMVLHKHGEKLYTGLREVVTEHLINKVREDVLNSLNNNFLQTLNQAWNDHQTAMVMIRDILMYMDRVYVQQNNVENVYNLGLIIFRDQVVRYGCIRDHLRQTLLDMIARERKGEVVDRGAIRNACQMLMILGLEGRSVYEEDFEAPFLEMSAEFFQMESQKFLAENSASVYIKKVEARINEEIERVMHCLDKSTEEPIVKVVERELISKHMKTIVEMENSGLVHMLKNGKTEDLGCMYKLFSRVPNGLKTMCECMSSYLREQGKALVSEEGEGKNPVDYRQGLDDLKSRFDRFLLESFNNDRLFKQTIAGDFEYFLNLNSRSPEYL

[3] = biological target: the molecule itself; assay: […]; room temperature; […]; 20 mM HEPES, 150 mM NaCl, 2 mM DTT; […]

T1 sequence (Q13618 23-388 I342R/L346D): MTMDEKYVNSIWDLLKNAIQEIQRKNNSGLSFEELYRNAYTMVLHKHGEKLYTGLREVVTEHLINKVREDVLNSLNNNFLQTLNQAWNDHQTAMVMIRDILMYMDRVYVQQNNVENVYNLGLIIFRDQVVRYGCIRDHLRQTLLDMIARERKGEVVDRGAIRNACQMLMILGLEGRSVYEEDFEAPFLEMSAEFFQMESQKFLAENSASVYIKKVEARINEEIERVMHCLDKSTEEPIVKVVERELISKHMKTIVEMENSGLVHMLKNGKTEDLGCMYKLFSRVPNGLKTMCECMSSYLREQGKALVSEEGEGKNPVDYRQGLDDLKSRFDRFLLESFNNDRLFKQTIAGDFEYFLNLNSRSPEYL

B1: A55BB (A55 BTB-BACK domain, residues 1–250), wild type (domain or fragment)
chain: MNNSSELIAVINGFRNSGRFCDISIVINDERINAHKLILSGASEYFSILFSNNFIDSNEYEVNLSHLDYQSVNDLIDYIYGIPLSLTNDNVKYILSTADFLQIGSAITECENYILKNLCSKNCIDFYIYADKYNNKKIESASFNTILQNILRLINDENFKYLTEESMIKILSDDMLNIKNEDFAPLILIKWLESTQQSCTVELLRCLRISLLSPQVIKSLYSHQLVSSIYECITFLNNIAFLDESFPRYH
Kd [1]: 5.3 nM
dH [1]: -9.9 kcal/mol
Kd [2]: < 1 nM
dH [2]: -17.7 kcal/mol
stoichiometry N [3]: 2
